We go through four substances from paper PMC5432316.

The test deals with recombinant gC1q domain of EMILIN1 (UniProt Q9Y6C2). The test can be described thus: cell adhesion assay (CAFCA, Centrifugal Assay for Fluorescence-based Cell Adhesion); ligand as substrate in CAFCA miniplates; calcein AM-labelled cells centrifuged onto the substrate, 20 min at 37°C, then centrifuged at 500 rpm; bound cells read by fluorescence; for HaCat cells also with integrin blocking antibodies.
Chain of UniProt Q9Y6C2 (Q9Y6C2 22-1016): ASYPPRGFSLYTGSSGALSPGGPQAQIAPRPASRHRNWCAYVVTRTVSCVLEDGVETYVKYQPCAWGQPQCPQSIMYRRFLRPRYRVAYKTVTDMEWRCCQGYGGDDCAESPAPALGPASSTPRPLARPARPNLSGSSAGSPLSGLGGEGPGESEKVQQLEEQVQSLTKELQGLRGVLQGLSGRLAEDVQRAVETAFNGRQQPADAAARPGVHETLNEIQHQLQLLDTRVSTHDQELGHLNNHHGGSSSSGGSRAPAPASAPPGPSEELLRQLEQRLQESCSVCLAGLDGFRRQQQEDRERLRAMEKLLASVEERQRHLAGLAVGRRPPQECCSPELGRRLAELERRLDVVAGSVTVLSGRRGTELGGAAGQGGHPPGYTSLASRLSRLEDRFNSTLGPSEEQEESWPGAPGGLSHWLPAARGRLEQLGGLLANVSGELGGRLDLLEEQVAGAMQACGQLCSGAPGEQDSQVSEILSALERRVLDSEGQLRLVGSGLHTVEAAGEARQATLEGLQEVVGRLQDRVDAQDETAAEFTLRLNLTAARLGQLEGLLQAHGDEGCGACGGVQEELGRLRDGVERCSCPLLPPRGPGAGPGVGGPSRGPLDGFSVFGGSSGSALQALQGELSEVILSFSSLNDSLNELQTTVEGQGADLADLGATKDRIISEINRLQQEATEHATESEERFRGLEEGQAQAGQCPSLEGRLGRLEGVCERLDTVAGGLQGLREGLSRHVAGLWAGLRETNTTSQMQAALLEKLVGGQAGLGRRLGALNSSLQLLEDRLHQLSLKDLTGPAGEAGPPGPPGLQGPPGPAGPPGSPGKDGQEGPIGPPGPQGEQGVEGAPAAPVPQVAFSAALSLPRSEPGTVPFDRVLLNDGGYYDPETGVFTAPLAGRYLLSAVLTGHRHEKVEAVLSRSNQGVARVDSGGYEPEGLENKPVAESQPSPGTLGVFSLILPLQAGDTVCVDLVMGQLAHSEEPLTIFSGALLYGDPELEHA
In the case of “α4β1 integrin on HT29 cells transfected with the cytoplasmic tail-deleted α4 chain mutant R974 (from UniProt P05556 21-798) (receptor)”, the percentage of adhesion was 90%.

Consider “α4β1 integrin on SW480 cells transfected with the wild type α4 integrin chain (from UniProt P13612 34-1032; P05556 21-798) (receptor)”, for which the percentage of adhesion was 60%.

As to “α4β1 integrin on SW480 cells transfected with the cytoplasmic tail-deleted α4 chain mutant R974 (from UniProt P05556 21-798) (receptor)”, the percentage of adhesion is 60%.

For the substance “α4β1 integrin on HT29 cells transfected with the wild type α4 integrin chain (from UniProt P13612 34-1032; P05556 21-798) (receptor)”, the percentage of adhesion was 90%.
